The record followed here is PMC6510891, “Functional duplication of Rap1 in methylotrophic yeasts”.

In data set [1] the target is T1, HpRap1A (Hansenula polymorpha DL-1, UniProt W1Q7Z6 1-613).
T1 sequence: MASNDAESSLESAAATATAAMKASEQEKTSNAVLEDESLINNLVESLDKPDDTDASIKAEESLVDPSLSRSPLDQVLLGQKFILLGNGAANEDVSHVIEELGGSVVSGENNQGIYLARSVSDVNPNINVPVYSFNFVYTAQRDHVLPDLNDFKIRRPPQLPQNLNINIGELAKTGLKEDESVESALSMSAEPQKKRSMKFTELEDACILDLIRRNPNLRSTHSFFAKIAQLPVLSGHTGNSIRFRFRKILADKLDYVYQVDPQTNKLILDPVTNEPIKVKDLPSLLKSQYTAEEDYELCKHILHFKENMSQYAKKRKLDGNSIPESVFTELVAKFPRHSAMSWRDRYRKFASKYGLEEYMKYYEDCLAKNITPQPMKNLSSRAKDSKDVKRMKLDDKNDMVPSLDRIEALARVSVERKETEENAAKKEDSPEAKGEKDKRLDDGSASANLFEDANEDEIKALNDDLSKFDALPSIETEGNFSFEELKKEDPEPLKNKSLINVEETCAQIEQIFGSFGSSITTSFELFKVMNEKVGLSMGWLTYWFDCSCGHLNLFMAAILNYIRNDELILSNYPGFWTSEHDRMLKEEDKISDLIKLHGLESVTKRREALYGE
In words: competition SPR; score - vs VIIrAbs surface; SPR: 10 mM HEPES-NaOH pH 7.5, 150 mM NaCl, 0.5 mM DTT, 0.05% Tween 20, 1 mg/ml BSA, 0.02 mg/ml salmon sperm DNA; competition 2 nM protein with 20 or 200 nM competitor. EMSA: 20 mM HEPES-NaOH pH 7.5, 50 mM NaCl, 0.2 mg/ml BSA, 5% glycerol, 0.1 mg/ml salmon sperm DNA, room temperature. The settings on record: protein: recombinant; blunt. On the technique in general: In EMSA bound probe runs differently from free probe, usually more slowly.

The target of data set [2] is T2, HpRap1B (Hansenula polymorpha DL-1, UniProt W1QDN2 1-576).
T2 sequence: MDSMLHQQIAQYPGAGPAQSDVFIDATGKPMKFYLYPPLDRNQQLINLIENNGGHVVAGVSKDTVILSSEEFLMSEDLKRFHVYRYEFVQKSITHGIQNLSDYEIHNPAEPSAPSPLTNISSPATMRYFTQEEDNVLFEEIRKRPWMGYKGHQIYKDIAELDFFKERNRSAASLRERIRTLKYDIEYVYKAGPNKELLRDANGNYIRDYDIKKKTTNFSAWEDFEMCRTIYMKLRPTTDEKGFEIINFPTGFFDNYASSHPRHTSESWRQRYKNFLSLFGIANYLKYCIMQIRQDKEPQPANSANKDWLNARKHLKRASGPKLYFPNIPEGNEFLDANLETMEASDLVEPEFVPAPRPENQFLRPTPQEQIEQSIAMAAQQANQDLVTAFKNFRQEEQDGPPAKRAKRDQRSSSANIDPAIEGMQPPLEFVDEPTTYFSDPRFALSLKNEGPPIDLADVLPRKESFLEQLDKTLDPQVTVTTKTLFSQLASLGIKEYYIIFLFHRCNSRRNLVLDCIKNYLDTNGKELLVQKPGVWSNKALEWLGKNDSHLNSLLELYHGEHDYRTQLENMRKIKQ
The data set can be described thus: competition SPR; score ++ vs PICKU surface; SPR: 10 mM HEPES-NaOH pH 7.5, 150 mM NaCl, 0.5 mM DTT, 0.05% Tween 20, 1 mg/ml BSA, 0.02 mg/ml salmon sperm DNA; competition 2 nM protein with 20 or 200 nM competitor. EMSA: 20 mM HEPES-NaOH pH 7.5, 50 mM NaCl, 0.2 mg/ml BSA, 5% glycerol, 0.1 mg/ml salmon sperm DNA, room temperature. The settings on record: protein: recombinant; blunt.

In data set [3] the target is T2, HpRap1B. In words: competition SPR; score - vs PICKU surface; SPR: 10 mM HEPES-NaOH pH 7.5, 150 mM NaCl, 0.5 mM DTT, 0.05% Tween 20, 1 mg/ml BSA, 0.02 mg/ml salmon sperm DNA; competition 2 nM protein with 20 or 200 nM competitor. EMSA: 20 mM HEPES-NaOH pH 7.5, 50 mM NaCl, 0.2 mg/ml BSA, 5% glycerol, 0.1 mg/ml salmon sperm DNA, room temperature. The settings on record: protein: recombinant; blunt.

Data set [4] has as its target T1, HpRap1A. The data set can be described thus: competition SPR; score +++ vs VIIrAbs surface; SPR: 10 mM HEPES-NaOH pH 7.5, 150 mM NaCl, 0.5 mM DTT, 0.05% Tween 20, 1 mg/ml BSA, 0.02 mg/ml salmon sperm DNA; competition 2 nM protein with 20 or 200 nM competitor. EMSA: 20 mM HEPES-NaOH pH 7.5, 50 mM NaCl, 0.2 mg/ml BSA, 5% glycerol, 0.1 mg/ml salmon sperm DNA, room temperature. The settings on record: protein: recombinant; blunt.

The target in data set [5] is T1, HpRap1A. The data set can be described thus: SPR; kinetic fit; SPR: 10 mM HEPES-NaOH pH 7.5, 150 mM NaCl, 0.5 mM DTT, 0.05% Tween 20, 1 mg/ml BSA, 0.02 mg/ml salmon sperm DNA; competition 2 nM protein with 20 or 200 nM competitor. EMSA: 20 mM HEPES-NaOH pH 7.5, 50 mM NaCl, 0.2 mg/ml BSA, 5% glycerol, 0.1 mg/ml salmon sperm DNA, room temperature. The settings on record: protein: recombinant; 3' overhang 20 nt on strand 2.

Data set [6] deals with T2, HpRap1B. The data set can be described thus: SPR; SPR: 10 mM HEPES-NaOH pH 7.5, 150 mM NaCl, 0.5 mM DTT, 0.05% Tween 20, 1 mg/ml BSA, 0.02 mg/ml salmon sperm DNA; competition 2 nM protein with 20 or 200 nM competitor. EMSA: 20 mM HEPES-NaOH pH 7.5, 50 mM NaCl, 0.2 mg/ml BSA, 5% glycerol, 0.1 mg/ml salmon sperm DNA, room temperature. The settings on record: protein: recombinant; 3' overhang 20 nt on strand 2. For orientation: SPR reads the build-up and loss of mass on a sensor chip optically.

The target in data set [7] is T1, HpRap1A. Described as above. The settings on record: protein: recombinant; 3' overhang 20 nt on strand 2.
The target in data set [8] is T2, HpRap1B. In words: SPR; kinetic fit; SPR: 10 mM HEPES-NaOH pH 7.5, 150 mM NaCl, 0.5 mM DTT, 0.05% Tween 20, 1 mg/ml BSA, 0.02 mg/ml salmon sperm DNA; competition 2 nM protein with 20 or 200 nM competitor. EMSA: 20 mM HEPES-NaOH pH 7.5, 50 mM NaCl, 0.2 mg/ml BSA, 5% glycerol, 0.1 mg/ml salmon sperm DNA, room temperature. The settings on record: protein: recombinant; 3' overhang 20 nt on strand 2.

B1: CANAR (competitor) (dsDNA)
DNA 1: GGTGTTGGGTGTTGGGTGTTGGG
DNA 2: CCCAACACCCAACACCCAACACC
For B1, the binding result with HpRap1A [1] is “no binding”; with HpRap1B [2] it was “binds”.

B2: rnd2 (dsDNA)
DNA 1: AAATCTAGACATGAAAAAAAAAATGTTAGTAATCGAAATCTC
DNA 2: GAGATTTCGATTACTAACATTTTTTTTTTCATGTCTAGATTT
In the case of B2, the binding result with HpRap1A [1] and with HpRap1B [3] was “no binding” in each case.

B3: VIIrAbs (competitor) (dsDNA)
DNA 1: GGCAGGCGGTGTAGGGATGCGGC
DNA 2: GCCGCATCCCTACACCGCCTGCC
As for B3, the binding result was “binds” in the data set with HpRap1A [4] and “no binding” in the data set with HpRap1B [3].

B4: RPS16 (dsDNA)
DNA 1: CAAACCCCGTGTAAGGGTGCCTA
DNA 2: TAGGCACCCTTACACGGGGTTTGCCTCTACGTCCTCCTGCTCC
Turning to B4, the dissociation constant (Kd) with HpRap1A [5] worked out at 0.5 ± 0.08 nM. Also, the binding result with HpRap1B [6] is recorded as “no binding”.

B5: rnd1 (SPR) (dsDNA)
DNA 1: ACGACTCACTGTAGATACGACTCACTGTAGAT
DNA 2: ATCTACAGTGAGTCGTATCTACAGTGAGTCGTCCTCTACGTCCTCCTGCTCC
For the molecule B5, the binding result with HpRap1A [7] and with HpRap1B [6] was “no binding” in each case.

B6: rnd1 (competitor) (dsDNA)
DNA 1: B5 DNA 1
DNA 2: ATCTACAGTGAGTCGTATCTACAGTGAGTCGT
For the molecule B6, the binding result with HpRap1A [1] and with HpRap1B [3] was “no binding” each time.

B7: HANPO4 (competitor) (dsDNA)
DNA 1: GGGTGGCGGGGTGGCGGGGTGGCGGGGTGGCG
DNA 2: CGCCACCCCGCCACCCCGCCACCCCGCCACCC
Regarding B7, the binding result in the data set with HpRap1A [1] is reported as “no binding”.

B8: PICPA (dsDNA)
DNA 1: GGATGCTGGATGCTGGATGCTGGATGCT
DNA 2: AGCATCCAGCATCCAGCATCCAGCATCC
Consider B8, for which the binding result with HpRap1A [1] and with HpRap1B [3] was “no binding” each time.

B9: PACTA (dsDNA)
DNA 1: TGTGAGTGGTGTGAGTGGTGTGAGTGG
DNA 2: CCACTCACACCACTCACACCACTCACA
With B9, the binding result in the data set with HpRap1A [1] is given as “no binding”.

B10: RPL36b (dsDNA)
DNA 1: GGACAGTGGTGTAGGGGGTAGAG
DNA 2: CTCTACCCCCTACACCACTGTCCCCTCTACGTCCTCCTGCTCC
As to B10, the binding result in the data set with HpRap1A [7] is on record as “no binding”.

B11: CANAL (SPR) (dsDNA)
DNA 1: ACTTCTTGGTGTACGGATGTCTA
DNA 2: TAGACATCCGTACACCAAGAAGTCCTCTACGTCCTCCTGCTCC
As to B11, in the data set with HpRap1A [5], the Kd was determined as 0.05 ± 0.014 nM.

B12: SACCE (competitor) (dsDNA)
DNA 1: GTGTGTGGGTGTGTGGGTGTGTG
DNA 2: CACACACCCACACACCCACACAC
On to B12, for which, in the data set with HpRap1B [2], the binding result is “binds”.

B13: DEBHA (dsDNA)
DNA 1: GTGTTGAGGTGTAGGGATGTTGA
DNA 2: TCAACATCCCTACACCTCAACAC
Consider B13, for which the binding result with HpRap1A [4] is given as “binds”.

B14: CANAL (competitor) (dsDNA)
DNA 1: ACTTCTTGGTGTACGGATGTCTA
DNA 2: TAGACATCCGTACACCAAGAAGT
As for B14, in the data set with HpRap1A [4], the binding result is reported as “binds”.

B15: PICME (dsDNA)
DNA 1: TAGAACTAGGTGTGCGGGGTATAATAG
DNA 2: CTATTATACCCCGCACACCTAGTTCTA
Turning to B15, the results for the binding result in the data set with HpRap1A [1] and with HpRap1B [2] were “no binding” and “binds”, respectively.

B16: RPS22b (dsDNA)
DNA 1: AATGTTCGGTTCGAGGAGTTCTT
DNA 2: AAGAACTCCTCGAACCGAACATTCCTCTACGTCCTCCTGCTCC
B16: the binding result in the data set with HpRap1A [7] was “no binding”.

B17: DEKBR (dsDNA)
DNA 1: GGATTGGTGGATTGGTGGATTGGT
DNA 2: ACCAATCCACCAATCCACCAATCC
B17: the binding result with HpRap1A [1] and with HpRap1B [3] was “no binding” each time.

B18: CANMA (dsDNA)
DNA 1: CTCGCTTGGTGTACGGATGCAGA
DNA 2: TCTGCATCCGTACACCAAGCGAG
With B18, the binding result with HpRap1A [4] is “binds”.

B19: RPS14 (dsDNA)
DNA 1: GTGTTCAGGTGTGAGGTGTGTTT
DNA 2: AAACACACCTCACACCTGAACACCCTCTACGTCCTCCTGCTCC
With B19, in the data set with HpRap1B [8], the Kd stood at 0.048 ± 0.007 nM. Further, the binding result with HpRap1A [7] was “no binding”.

B20: CANAR (SPR) (dsDNA)
DNA 1: GGTGTTGGGTGTTGGGTGTTGGG
DNA 2: CCCAACACCCAACACCCAACACCCCTCTACGTCCTCCTGCTCC
Consider B20, for which, in the data set with HpRap1A [7], the binding result is “no binding”.

Broadly, the Kd is the free concentration of one partner at which half of the binding sites on the other are occupied at equilibrium, for simple one-to-one binding.
